Source: patent CN114805590A (SUNSHINE GUOJIAN PHARMACEUTICAL SHANGHAI CO LTD, dated 2022)

What was measured:
HER2-DI-DIII-L295P/H296N = biological target: T1, HER2-DI-DIII-L295P/H296N (Homo sapiens (Human), UniProt P04626 23-510); assay: ELISA, plate coated with HER2-DI-DIII-L295P/H296N
T1 construct: also called HER2-DI-DIII-L295/H296N

[1] = biological target: T2, HER2 (on HER2高表达细胞株 N87 / BT474) (UniProt P04626 23-1255, limits assumed); assay: cell-based or functional assay
HER2-DI-DIII-his = biological target: T3, HER2-DI-DIII-his (Homo sapiens (Human), UniProt P04626 23-510); assay: ELISA, plate coated with HER2-DI-DIII-his, detection with HRP-anti human IgG Fc
T3 construct: also called HER2-ECD-DI-DIII

[2] = biological target: T4, HER2-DI-DIII-V483A/D480A/E485A (Homo sapiens (Human), UniProt P04626 23-513); assay: ELISA, plate coated with HER2-DI-DIII-V483A/D480A/E485A
T4 chain: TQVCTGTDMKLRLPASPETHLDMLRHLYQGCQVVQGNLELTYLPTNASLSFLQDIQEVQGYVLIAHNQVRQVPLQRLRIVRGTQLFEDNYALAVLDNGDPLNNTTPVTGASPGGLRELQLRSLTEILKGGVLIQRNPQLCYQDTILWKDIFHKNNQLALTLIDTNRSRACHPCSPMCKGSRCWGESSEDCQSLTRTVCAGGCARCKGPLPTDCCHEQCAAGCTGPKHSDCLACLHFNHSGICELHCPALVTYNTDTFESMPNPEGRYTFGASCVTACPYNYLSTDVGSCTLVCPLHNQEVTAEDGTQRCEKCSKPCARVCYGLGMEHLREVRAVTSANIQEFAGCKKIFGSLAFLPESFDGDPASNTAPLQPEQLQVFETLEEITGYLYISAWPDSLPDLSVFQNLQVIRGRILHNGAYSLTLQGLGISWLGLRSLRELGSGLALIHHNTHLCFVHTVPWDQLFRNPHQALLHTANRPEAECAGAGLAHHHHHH

[3] = biological target: T2, HER2 (on HER2高表达细胞株 N87 / BT474); assay: cell-based or functional assay; remark: listed apart in the source

EC50 (HER2-DI-DIII-L295P/H296N): 0.027 nM
最大抑制率(%), N87细胞增殖 (CCK8) [1]: 41.8%
EC50 (HER2-DI-DIII-his): 0.043 nM
binding result [2]: no binding (tested: 最高浓度为10nM)
最大抑制率(%), BT474细胞增殖 (CCK8) [3]: 47.1%
B1: 抗HER2抗体612 (antibody, V domains shown)
VH: QVQLVQSGAEVKKPGASVKVSCKGSGYTFTDYAIHWVRQAPGQSLEWIGVFSIYYENINYNQKFKGRATMTVDKSTSTAYMELRSLRSDDTAVYYCARRDGGTINYWGQGTLVTVSS
VL: DVVMTQSPLSLPVTLGQPASISCRSSQSLVHSNGNTYLHWYQQRPGQSPRLLIYKVSNRFSGVPDRFSGSGSGTDFTLKISRVEAEDVGVYFCSQSTHIPWTFGQGTKVEIK
notes: No visible text gives the full heavy chain; also called 19H6-Hu
